Source: article PMC11551757, “Phylogenomic instructed target analysis reveals ELAV complex binding to multiple optimally spaced U-rich motifs”

Legend:
ELAV (rELAV) [1] = molecular target: T1, ELAV (rELAV) (Drosophila melanogaster?) (UniProt P16914); experiment: EMSA; details: EMSA: 50 mM Tris-HCl pH 7.5, 60 mM NaCl, 25 ug/ml tRNA, 0.5 mM DTT, 50 ug/ml acetylated BSA, 20 min; 4-6% native gel in 0.5x TBE at 4 C. Footprinting: …
T1 sequence: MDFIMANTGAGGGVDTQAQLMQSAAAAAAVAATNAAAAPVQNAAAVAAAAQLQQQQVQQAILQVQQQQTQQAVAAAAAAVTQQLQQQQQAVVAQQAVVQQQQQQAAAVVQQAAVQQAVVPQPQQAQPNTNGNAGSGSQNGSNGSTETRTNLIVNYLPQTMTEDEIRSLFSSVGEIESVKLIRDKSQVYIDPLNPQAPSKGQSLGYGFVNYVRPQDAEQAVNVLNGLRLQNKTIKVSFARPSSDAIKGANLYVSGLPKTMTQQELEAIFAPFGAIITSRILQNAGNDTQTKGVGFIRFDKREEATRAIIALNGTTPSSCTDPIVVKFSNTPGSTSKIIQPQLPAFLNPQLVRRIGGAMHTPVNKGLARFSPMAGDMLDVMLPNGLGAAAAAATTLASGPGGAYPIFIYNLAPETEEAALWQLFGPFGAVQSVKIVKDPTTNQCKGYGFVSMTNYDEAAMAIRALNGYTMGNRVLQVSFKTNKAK

ELAV (rELAV) [2] = molecular target: T2, ELAV (rELAV) (UniProt P16914 1-483); experiment: EMSA; EMSA: 50 mM Tris-HCl pH 7.5, 60 mM NaCl, 25 ug/ml tRNA, 0.5 mM DTT, 50 ug/ml acetylated BSA, 20 min; 4-6% native gel in 0.5x TBE at 4 C. Footprinting: complexes formed as for EMSA, 15 min at room temperature; details: protein: recombinant; tags: GST tag, cleaved off with PreScission protease
T2 sequence: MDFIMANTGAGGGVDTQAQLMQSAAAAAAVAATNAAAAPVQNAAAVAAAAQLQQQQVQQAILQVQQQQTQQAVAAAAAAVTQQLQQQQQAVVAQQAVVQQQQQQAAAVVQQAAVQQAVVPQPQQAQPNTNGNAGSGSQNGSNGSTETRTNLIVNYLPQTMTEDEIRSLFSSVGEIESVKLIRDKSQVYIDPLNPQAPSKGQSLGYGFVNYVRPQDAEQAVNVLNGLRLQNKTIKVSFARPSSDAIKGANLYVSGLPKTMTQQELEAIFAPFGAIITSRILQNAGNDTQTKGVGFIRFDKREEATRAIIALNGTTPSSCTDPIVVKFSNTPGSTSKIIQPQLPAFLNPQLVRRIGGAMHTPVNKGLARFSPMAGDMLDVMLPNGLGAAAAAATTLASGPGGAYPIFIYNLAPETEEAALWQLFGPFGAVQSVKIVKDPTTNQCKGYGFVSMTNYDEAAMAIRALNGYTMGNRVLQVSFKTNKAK

Question: How did the Kd (ELAV (rELAV) [1]) turn out when 5PtaseI RNA was run?
Answer: 24 nM

Question: CG4662 RNA was tested. Which Kd (ELAV (rELAV) [1]) did it give?
Answer: 80 nM

Question: With Ect4 RNA as the molecule, how does the Kd (ELAV (rELAV) [1]) read?
Answer: 100 nM

Question: How did the Kd (ELAV (rELAV) [1]) turn out when Teh2 RNA was run?
Answer: 430 nM

B1: M7H A(CU)2 in m3r (ssRNA)
RNA: GAAGCUAUUAUACAUUUUAUCUUAUAACUCUAUACUUUAUGUU
Question: With B1 as the molecule, how does the binding signal (ELAV (rELAV) [2]) read?
Answer: 2.5 fold lower affinity than M7H
